Positions count from the first letter of the chain named. Ends that are not written are not given here.
T1: biotinylated Compound 1 (biotinylated CCR4 partial peptide) (human, also: biotinylated, site not given here)
T1 construct: Same peptide as in BSA-Compound 1
T1 peptide: DESIYSNYYLYESIPKPC

T2: BSA-Compound 1 (human CCR4 extracellular region peptide Compound 1 conjugated with BSA) (human, also: conjugated to BSA through SMCC, site not given here)
T2 construct: the claims speak of positions 13 to 29; ELISA antigen; also called CCR4 partial peptide
T2 peptide: DESIYSNYYLYESIPKPC

T3: human CC chemokine receptor 4 (CCR4) on CCR4/EL-4 cells (human, UniProt P51679 1-360)
T3 construct: also called hCCR4; human CCR4-high-expressing cell
T3 sequence: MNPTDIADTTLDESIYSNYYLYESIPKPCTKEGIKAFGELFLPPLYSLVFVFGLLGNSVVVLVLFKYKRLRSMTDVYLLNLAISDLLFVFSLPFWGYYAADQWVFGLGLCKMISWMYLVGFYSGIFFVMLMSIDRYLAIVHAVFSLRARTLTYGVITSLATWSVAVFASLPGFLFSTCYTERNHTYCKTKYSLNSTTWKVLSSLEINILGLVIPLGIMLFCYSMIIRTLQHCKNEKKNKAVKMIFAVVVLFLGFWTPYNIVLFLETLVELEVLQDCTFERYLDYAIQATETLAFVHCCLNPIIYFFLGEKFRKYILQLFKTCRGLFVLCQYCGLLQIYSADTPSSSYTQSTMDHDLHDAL

B1: anti-CCR4 CDR-grafted antibody Ga10LV1 (antibody, human IgG1, V domains shown)
VH: EVQLVESGGDLVQPGRSLRLSCAASGFIFSNYGMSWVRQAPGKGLEWVATISSASTYSYYPDSVKGRFTISRDNAKNSLYLQMNSLRVEDTALYYCARHSDGNFAFGYWGQGTLVTVSS
VL: DVVMTQSPLSLPVTPGEPASISCRSSRNIVHINGDTYLEWYLQKPGQSPQLLIYKVSNRFSGVPDRFSGSGSGTDFTLKISRVEAEDVGVYYCFQGSLLPWTFGQGTKVEIK
notes: Tested as COS-7 supernatant and as purified antibody from YB2/0; also called pKM2160Ga10LV1
B2: anti-CCR4 CDR-grafted antibody Ga10LV0 (antibody, human IgG1, V domains shown)
VH: B1 VH
VL: B1 VL with V2I
notes: CDR alone grafted; Tested as COS-7 supernatant and as purified antibody from YB2/0; also called pKANTEX2160Ga10LV0; pKM2160Ga10LV0
B3: anti-CCR4 CDR-grafted antibody Ga11LV1 (antibody, human IgG1, V domains shown)
VH: B1 VH with A97G
VL: B1 VL
notes: Tested as COS-7 supernatant and as purified antibody from YB2/0; also called pKM2160Ga11 LV1
B4: anti-CCR4 CDR-grafted antibody Ga10LV3 (antibody, human IgG1, V domains shown)
VH: B1 VH
VL: B1 VL with V3L
notes: Tested as COS-7 supernatant and as purified antibody from YB2/0; also called pKM2160Ga10LV3
B5: anti-CCR4 CDR-grafted antibody Ga12LV3 (antibody, human IgG1, V domains shown)
VH: B1 VH with G42D, G44R
VL: B1 VL with V3L
notes: Tested as COS-7 supernatant and as purified antibody from YB2/0; also called pKANTEX2160Ga12LV3; antibody of producing cell KM8759 (FERM BP-8129)
B6: anti-CCR4 CDR-grafted antibody Ga11LV3 (antibody, human IgG1, V domains shown)
VH: B1 VH with A97G
VL: B1 VL with V3L
notes: Tested as COS-7 supernatant and as purified antibody from YB2/0; also called pKANTEX2160Ga11LV3; antibody of producing cell KM8760 (FERM BP-8130)
B7: anti-CCR4 CDR-grafted antibody Ga13LV1 (antibody, human IgG1, V domains shown)
VH: B1 VH with G42D, G44R, A97G
VL: B1 VL
notes: Tested as COS-7 supernatant and as purified antibody from YB2/0; also called pKM2160Ga13LV 1
B8: anti-CCR4 CDR-grafted antibody Ga12LV1 (antibody, human IgG1, V domains shown)
VH: B1 VH with G42D, G44R
VL: B1 VL
notes: Tested as COS-7 supernatant and as purified antibody from YB2/0; also called pKM2160Ga12LV1
B9: anti-CCR4 CDR-grafted antibody Ga13LV3 (antibody, human IgG1, V domains shown)
VH: B1 VH with G42D, G44R, A97G
VL: B1 VL with V3L
notes: Tested as COS-7 supernatant and as purified antibody from YB2/0; also called pKM2160Ga13LV3
B10: anti-CCR4 CDR-grafted antibody HV1LV1 (antibody, human IgG1, V domains shown)
VH: B1 VH with D10G, R16G, A49S, A75S, S78T, V88A, L93V
VL: B1 VL
notes: Tested as COS-7 culture supernatant only; also called pKM2160HV1LV1
B11: anti-CCR4 CDR-grafted antibody Ga10LV2 (antibody, human IgG1, V domains shown)
VH: B1 VH
VL: B1 VL with V2I, V3L
notes: Tested as COS-7 culture supernatant only; also called pKM2160Ga10LV2
B12: anti-CCR4 CDR-grafted antibody HV0LV0 (antibody, human IgG1, V domains shown)
VH: B1 VH with D10G, R16G, I28T, A49S, A75S, S78T, V88A, L93V
VL: B1 VL with V2I
notes: Tested as COS-7 culture supernatant only; also called pKM2160HV0LV0
B13: anti-CCR4 CDR-grafted antibody HV1LV3 (antibody, human IgG1, V domains shown)
VH: B1 VH with D10G, R16G, A49S, A75S, S78T, V88A, L93V
VL: B1 VL with V3L
notes: Tested as COS-7 culture supernatant only; also called pKM2160HV1LV3
B14: anti-CCR4 CDR-grafted antibody HV2LV0 (antibody, human IgG1, V domains shown)
VH: B1 VH with D10G, R16G, I28T, A49S, A75S, S78T, V88A, L93V, A97G
VL: B1 VL with V2I
notes: Tested as COS-7 culture supernatant only; also called pKM2160HV2LV0
B15: anti-CCR4 CDR-grafted antibody HV0LV2 (antibody, human IgG1, V domains shown)
VH: B1 VH with D10G, R16G, I28T, A49S, A75S, S78T, V88A, L93V
VL: B1 VL with V2I, V3L
notes: Tested as COS-7 culture supernatant only; also called pKM2160HV0LV2
B16: anti-CCR4 CDR-grafted antibody HV1LV0 (antibody, human IgG1, V domains shown)
VH: B1 VH with D10G, R16G, A49S, A75S, S78T, V88A, L93V
VL: B1 VL with V2I
notes: Tested as COS-7 culture supernatant only; also called pKM2160HV1LV0
B17: anti-CCR4 CDR-grafted antibody HV3LV3 (antibody, human IgG1, V domains shown)
VH: B1 VH with D10G, R16G, A49S, A75S, S78T, V88A, L93V, A97G
VL: B1 VL with V3L
notes: Tested as COS-7 culture supernatant only; also called pKM2160HV3LV 3
B18: anti-CCR4 CDR-grafted antibody HV1LV2 (antibody, human IgG1, V domains shown)
VH: B1 VH with D10G, R16G, A49S, A75S, S78T, V88A, L93V
VL: B1 VL with V2I, V3L
notes: Tested as COS-7 culture supernatant only; also called pKM2160HV1LV2
B19: anti-CCR4 CDR-grafted antibody HV3LV0 (antibody, human IgG1, V domains shown)
VH: B1 VH with D10G, R16G, A49S, A75S, S78T, V88A, L93V, A97G
VL: B1 VL with V2I
notes: Tested as COS-7 culture supernatant only; also called pKM2160HV3LV0
B20: anti-CCR4 CDR-grafted antibody HV0LV1 (antibody, human IgG1, V domains shown)
VH: B1 VH with D10G, R16G, I28T, A49S, A75S, S78T, V88A, L93V
VL: B1 VL
notes: Tested as COS-7 culture supernatant only; also called pKM2160HV0LV1
B21: anti-CCR4 CDR-grafted antibody HV2LV3 (antibody, human IgG1, V domains shown)
VH: B1 VH with D10G, R16G, I28T, A49S, A75S, S78T, V88A, L93V, A97G
VL: B1 VL with V3L
notes: Tested as COS-7 culture supernatant only; also called pKM2160HV2LV3
B22: anti-CCR4 CDR-grafted antibody HV0LV3 (antibody, human IgG1, V domains shown)
VH: B1 VH with D10G, R16G, I28T, A49S, A75S, S78T, V88A, L93V
VL: B1 VL with V3L
notes: Tested as COS-7 culture supernatant only; also called pKM2160HV0LV3

Molecular target: T1, biotinylated Compound 1 (biotinylated …)
Assay: BIAcore 2000, biotinylated Compound 1 on sensor tip SA, antibody at 4 µg/ml
Description: In order to measure the binding activity in more detail, the binding activity of various purified antibodies was measured using BIAcore 2000 (manufactured by BIACORE) as follows. In this case, HBS-EP (manufactured by BIACORE) was used as the buffer for diluting samples and for the measurement. First, 5 μl of 0.05 μg/ml solution of Compound 1 as a biotinylated CCR4 partial peptide was added to a sensor tip SA (manufactured by BIACORE) at a flow rate of 5 μl/minute and immobilized on the sensor tip.
To the prepared biotinylated compound 1 -immobilized sensor tip, 20 μl of 4 μg/ml solution of each of the purified antibodies was added at a flow rate of 5 μl/minute, and after completion of the addition, the dissociation reaction was monitored for 4 minutes and then the sensor tip surface was regenerated by adding 5 μl of 10 mM HCl twice. In this way, a binding reaction curve (sensorgram) for Compound 1 was obtained.

binding result | Binder
binds | B1
binds | B2
binds | B3
binds | B4
binds | B5
binds | B6
binds | B7
binds | B8
binds | B9

Molecular target: T2, BSA-Compound 1 (human CCR4 …)
Assay: ELISA on BSA-Compound 1, COS-7 culture supernatant
Description: Into a 96 well ELISA plate (manufactured by Greiner), 0.05 μg/ml of the prepared conjugate was dispensed in at 50 μl/well and allowed to stand at 4° C. overnight for adsorption. After washing with PBS, PBS containing 1% BSA (hereinafter referred to as “1% BSA-PBS”) was added thereto at 100 μl/well and allowed to react at room temperature for 1 hour to block the remaining active groups. After washing each well with PBS containing 0.05% Tween 20 (hereinafter referred to as “Tween-PBS”), a culture supernatant of the transformant was added at 50 μl/well and allowed to react at room temperature for 1 hour. After the reaction and subsequent washing of each well with Tween-PBS, a peroxidase-labeled goat anti-human IgG(γ) antibody solution (manufactured by American Qualex) diluted 6,000 folds with 1% BSA-PBS was added as a secondary antibody solution in 50 μl/well portions and allowed to react at room temperature for 1 hour After the reaction and subsequent washing with Tween-PBS, an ABTS substrate solution (a solution prepared by dissolving 0.55 g of […] ammonium in 1 liter of 0.1 M citrate buffer (pH 4.2) and adding 1 μl/ml hydrogen peroxide just before use) was added at 50 μl/well to develop color, and the reaction was stopped 20 minutes thereafter by adding 5% SDS solution at 50 μl/well. Thereafter, absorbance at 415 nm was measured.

binding result | Binder
binds | B10
binds | B11
binds | B12
binds | B2
binds | B13
binds | B14
binds | B15
binds | B16
binds | B17
binds | B18
binds | B7
binds | B19
binds | B9
binds | B20
binds | B21
binds | B22

Molecular target: T2, BSA-Compound 1 (human CCR4 …)
Assay: ELISA on BSA-Compound 1, purified antibody

binding result | Binder
binds | B1
binds | B3
binds | B4
binds | B5
binds | B6
binds | B8

molecular target: T3, human CC chemokine receptor 4 (CCR4) on …; assay: flow cytometry on CCR4/EL-4 cells, antibody at 10 µg/ml
Description: Into a 96 well plate, 2×10⁵ or more of CCR4/EL-4 cells, CCR4-high-expressing cells obtained in Reference Example 3, were dispensed. An antibody solution was prepared by diluting each of the purified antibodies and a human immunoglobulin (manufactured by Welfide) for preventing nonspecific staining to give concentrations of 10 μg/ml and 3.75 mg/ml, respectively, with a buffer for FACS, and the antibody solution was added at 100 μl/well and allowed to react for 30 minutes in ice. As a negative control, 10 μg/ml of an anti-human IL-5 receptor a chain antibody (WO 97/10354) was used. After washing twice with 200 μl/well of the buffer for FACS, a PE-labeled anti-human IgG antibody (manufactured by Coulter) diluted 100 times was added at 50 μl/well. After the reaction in ice under shading and subsequent washing three times with 200 μl/well of the buffer for FACS, the reaction product was suspended in 500 μl of the buffer for FACS and the fluorescence intensity was measured using a flow cytometer.

binding result | Binder
binds | B1
binds | B2
binds | B3
binds | B4
binds | B5
binds | B6
binds | B7
binds | B8
binds | B9

Reference: US20030175273A1 (Kyowa Kirin, published 2003)
